# Measured values from US20110033935.
# Substitutions are numbered along the chain they refer to.
# T1: GLA2
# T1 chain: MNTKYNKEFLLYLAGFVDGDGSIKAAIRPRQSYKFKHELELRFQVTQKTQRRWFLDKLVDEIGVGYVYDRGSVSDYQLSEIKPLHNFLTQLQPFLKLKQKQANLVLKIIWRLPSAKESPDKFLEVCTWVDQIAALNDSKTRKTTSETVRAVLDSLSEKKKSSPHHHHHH
# T2: BRP2
# T2 chain: T1 chain with K24I, A26S, Y33C, Y68R, Q77R
# T3: MYD2
# T3 chain: T1 chain with K24I, R30E, E38R, Y68R
# T4: LAM2
# T4 chain: T1 chain with K24I, A26Q, R28K, R30E, E38R, E40R, R42E, Y68R, Q77I
# T5: MGC2
# T5 chain: T1 chain with K24I, R28K, Y33R, E40Q, R42A, Q44T, Y68R
# T6: HSV2
# T6 chain: T1 chain with K24I, A26Q, S32C, Y33R, Y68R, Q77I
# T7: CF2
# T7 chain: T1 chain with K24C, R28K, R30E, S32N, Y33R, E38R, E40Q, R42A, Q44T, Q77I
# T8: ACH2
# T8 chain: T1 chain with K24I, A26Q, R28K, R30E, S32D, E38R, E40R, R42E, Y68R, Q77I
# T9: CCR2
# T9 chain: T1 chain with A26Q, R28K, R30E, S32N, Y33R, E38R, R42A, Q77I
# T10: URA2
# T10 chain: T1 chain with A26Q, R30E, S32N, Y33C, E38R, Q77I
# T11: HGH2 (partner of CYP in the CYP/HGH2 heterodimer, the 44th table)
# T11 chain: T1 chain with A26S, R28K, R30N, Y33C, E38Q, E40Q, R42A, Y66K, Q77R
# T12: variant of LAM2 in which glutamic acids at positions 8 and 61 were changed to lysine
# T12 chain: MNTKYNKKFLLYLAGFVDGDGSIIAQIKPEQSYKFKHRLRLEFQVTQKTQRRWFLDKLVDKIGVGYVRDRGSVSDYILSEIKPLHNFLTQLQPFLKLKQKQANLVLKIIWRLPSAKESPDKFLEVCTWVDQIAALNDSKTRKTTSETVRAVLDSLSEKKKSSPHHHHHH
# T13: HGH2
# T13 chain: T1 chain with K24I, R28D, R30N, S32K, Y33R, E38Q, E40R, Y68R, Q77I
# B1: GLA1 (protein)
# chain: T1 chain with R28K, E40S, R42A, S79C
# B2: BRP1 (protein)
# chain: T1 chain with A26Q, S32C, Y33R, R42A, Y66K, Q77E
# B3: MYD1 (protein)
# chain: T1 chain with K24I, A26Q, R42A, Y66K, Y68R, Q77E
# B4: LAM1 (protein)
# chain: T1 chain with K24I, A26Q, R28D, S32C, Y33R, E40R, Y68R, Q77I
# B5: MGC1 (protein)
# chain: T1 chain with A26Q, R28K, R30N, S32C, E38Q, E40Q, R42A, Q77I
# B6: HSV1 (protein)
# chain: T12 chain with K8E, E30R, Y33C, R38E, E42Q, K61E
# B7: CF1 (protein)
# chain: T12 chain with K8E, I24C, E30N, R38Q, R40Q, E42A, K61E, R68H
# B8: ACH1 (protein)
# chain: T1 chain with K24I, R28D, R30E, S32D, Y33C, E38R, E40R, Y68R
# B9: CCR1 (protein)
# chain: T1 chain with A26Q, S32N, R42E, Q77I
# B10: URA1 (protein)
# chain: T12 chain with K8E, E30N, Y33C, R38Q, E42A, Q44T, K61E
# B11: CYP (protein)
# chain: T1 chain with K24I, R28K, R30N, S32D, E38Q, E40R, R42A
# B12: variant of the LAM1 enzyme in which lysines at positions 7, 57, and 96 were changed to glutamic acids (protein)
# chain: MNTKYNEEFLLYLAGFVDGDGSIIAQIDPRQCRKFKHELRLRFQVTQKTQRRWFLDELVDEIGVGYVRDRGSVSDYILSEIKPLHNFLTQLQPFLELKQKQANLVLKIIWRLPSAKESPDKFLEVCTWVDQIAALNDSKTRKTTSETVRAVLDSLSEKKKSSPHHHHHH
# B13: HGH1 (protein)
# chain: B12 chain with E7K, R30N, C32D, R33C, E38Q, E57K, E96K
# How the values were obtained:
# GLA2 = target: T1, GLA2
# BRP2 = target: T2, BRP2
# MYD2 = target: T3, MYD2
# LAM2 = target: T4, LAM2
# MGC2 = target: T5, MGC2
# HSV2 = target: T6, HSV2
# CF2 = target: T7, CF2
# ACH2 = target: T8, ACH2
# CCR2 = target: T9, CCR2
# URA2 = target: T10, URA2
# [1] = target: T11, HGH2 (partner of CYP in the CYP/HGH2 …)
# [2] = target: T12, variant of LAM2 in which glutamic acids …
# HGH2 = target: T13, HGH2
protein,measurement,setting,value
B1,"cleavage of a linearized DNA substrate with the intended non-palindromic recognition sequence (SEQ ID NO: 32, Arabidopsis GL2 gene) by the 1:1 mixture",GLA2,each rationally-designed meganuclease heterodimer cleaves its intended DNA site
B2,"cleavage of a linearized DNA substrate with the intended non-palindromic recognition sequence (SEQ ID NO: 33, Arabidopsis BP1 gene) by the 1:1 mixture",BRP2,each rationally-designed meganuclease heterodimer cleaves its intended DNA site
B3,"cleavage of a linearized DNA substrate with the intended non-palindromic recognition sequence (SEQ ID NO: 27, human DM kinase gene) by the 1:1 mixture",MYD2,each rationally-designed meganuclease heterodimer cleaves its intended DNA site
B4,cleavage of the non-palindromic LAM1/LAM2 hybrid DNA site (SEQ ID NO: 22) by enzymes co-expressed from an operon in E. coli,LAM2,"The co-expressed enzyme mixture was found to cleave all three sites, including the LAM1/LAM2 hybrid site"
same,cleavage of the non-palindromic LAM1/LAM2 hybrid DNA site (SEQ ID NO: 22) by purified enzymes mixed 1:1 and incubated at 42 C for 20 minutes,LAM2,"The 1:1 mixture of LAM1 and LAM2, however, cleaves all three DNA sites"
B5,"cleavage of a linearized DNA substrate with the intended non-palindromic recognition sequence (SEQ ID NO: 34, Nicotiana tabacum Magnesium Chelatase gene) by the 1:1 mixture",MGC2,each rationally-designed meganuclease heterodimer cleaves its intended DNA site
B6,"cleavage of a linearized DNA substrate with the intended non-palindromic recognition sequence (SEQ ID NO: 28, HSV UL36 gene) by the 1:1 mixture",HSV2,each rationally-designed meganuclease heterodimer cleaves its intended DNA site
B7,"cleavage of a linearized DNA substrate with the intended non-palindromic recognition sequence (SEQ ID NO: 25, human CFTR deltaF508 allele) by the 1:1 mixture",CF2,each rationally-designed meganuclease heterodimer cleaves its intended DNA site
B8,"cleavage of a linearized DNA substrate with the intended non-palindromic recognition sequence (SEQ ID NO: 23, human FGFR3 gene) by the 1:1 mixture",ACH2,each rationally-designed meganuclease heterodimer cleaves its intended DNA site
B9,"cleavage of a linearized DNA substrate with the intended non-palindromic recognition sequence (SEQ ID NO: 26, human CCR5 gene) by the 1:1 mixture",CCR2,each rationally-designed meganuclease heterodimer cleaves its intended DNA site
B10,"cleavage of a linearized DNA substrate with the intended non-palindromic recognition sequence (SEQ ID NO: 36, Saccharomyces cerevisiae URA3 gene) by the 1:1 mixture",URA2,each rationally-designed meganuclease heterodimer cleaves its intended DNA site
B11,"cleavage of a linearized DNA substrate with the intended non-palindromic recognition sequence (SEQ ID NO: 35, Nicotiana tabacum CYP82E4 gene) by the 1:1 mixture",[1],each rationally-designed meganuclease heterodimer cleaves its intended DNA site
B12,cleavage of the LAM1/LAM2 hybrid DNA site against the two palindromic sites by co-expressed interface variants,[2],the LAM1/LAM2 hybrid site was found to be cleaved preferentially over the two palindromic sites
B13,"cleavage of a linearized DNA substrate with the intended non-palindromic recognition sequence (SEQ ID NO: 24, Human Growth Hormone promoter) by the 1:1 mixture",HGH2,each rationally-designed meganuclease heterodimer cleaves its intended DNA site
